Paper PMC9050680, “Interaction of human CRX and NRL in live HEK293T cells measured using fluorescence resonance energy transfer (FRET)” (Scientific Reports, 2022)

Biological target: the molecule itself
Experiment: FRET or BRET; FC-FRET: flow cytometry, sensitized emission (three-cube N_FRET, apparent FRET efficiency) in live transiently cotransfected HEK293T cells suspended in PBS; donor EGFP, acceptor mCherry; population means and dependence on expression level compared with unlinked mCh + eG

B1: human CRX with mCherry or EGFP fused to the N-terminus (near the homeodomain) (natural protein)
chain: not shown
notes: CRX, human, cone-rod homeobox protein; coding region cloned in derivatives of pEGFP-N1 with an NLS and a linker to EGFP or mCherry; mCRX (mCherry, acceptor) and eCRX (EGFP, donor) differ only in the fluorophore and are written as one molecule; mCRX + eCRX is a row of m1 with itself; also called mCRX; eCRX; source: HEK293T, transiently transfected, in live cells (fixed cells for acceptor …)
N_FRET (mean apparent FRET efficiency): 3.3%

B2: human NRL with mCherry or EGFP fused to the N-terminus (near the activation domain) (natural protein)
chain: not shown
notes: NRL, human, neural retina-specific leucine zipper protein; coding region cloned in derivatives of pEGFP-N1 with an NLS and a linker to EGFP or mCherry; mNRL (mCherry, acceptor) and eNRL (EGFP, donor) differ only in the fluorophore and are written as one molecule; The discussion speaks of (Gly)5 linkers between the fluorophores and NRL; also called mNRL; eNRL; source: HEK293T, transiently …
N_FRET (mean apparent FRET efficiency): 2.5%
